Data reported in the supplement of paper PMC7877785.
± gives the uncertainty stated by the source.

Assay: self-splicing fitness, log relative to wild type (ln ratio); higher = more splicing; Tetrahymena group I intron in knt gene, E. coli kanamycin selection, DiMSum; sequences stand for … in CUCUCU…GGAGGGAAAAGUUAUCAGGCAUGCACCUGGUAGCUAGUCUUUAAACCAAUAGAUUGCAUCGGUUUAAAAGGCAAGACCGUCAAAUUGCGGGAAAGGGGUCAACAGCCGUUCAGUACCAAGUCUCAGGGGAAACUUUGAGAUGGCCUUGCAAAGGGUAUGGUAAUAAGCUGACGGACAUGGUCCUAACCACGCAGCCAAGUCCUAAGUCAACAGAUCUUCUGUUGAUAUGGAUGCAGUUCACAGACUAAAUGUCGGUCGGGGAAGAUGUAUUCUUCUCAUAAGAUAUAGUCGGACCUCUCCUUAAUGGGAGCUAGCGGAUGAAGUGAUGCAACACUGGAGCCGCUGGGAACUAAUUUGUAUGCGAAAGUAUAUUGAUUAGUUUUGGAGUACUCGUGGUCG
Procedure, shortened: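 A randomised library covering all eight P1ex-region intron nucleotides was built with the intron in the knt kanamycin-resistance gene on pET-22b(+) and held in E. coli BL21(DE3). Cells were grown overnight at 37°C or 30°C on LB agar, with or without 25 μg/mL kanamycin, plus 100 μg/mL carbenicillin, 50 μM IPTG and 0.2% rhamnose, and pooled colonies were amplicon-sequenced on an Illumina HiSeq 2500. DiMSum fitness is the error-weighted combination of wild-type-normalised replicate fold changes, kanamycin versus none.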

Sequence | self-splicing fitness (ln) (30 °C) | self-splicing fitness (ln) (37 °C)
AAAUAGCAAUAUUACGGUAC | -3.61 ± 0.25 | -2.6 ± 0.3
AAAUAGCAAUAUUACGGUUC | -1.21 ± 0.11 | -0.851 ± 0.16
AAAUAGCAAUAUUACGUAUC | -3.12 ± 0.28 | -1.51 ± 0.19
AAAUAGCAAUAUUACGUAUG | -2.64 ± 0.12 | -2.08 ± 0.13
AAAUAGCAAUAUUACGUCUA | -0.412 ± 0.077 | 0.205 ± 0.084
AAAUAGCAAUAUUACGUCUU | 0.225 ± 0.074 | 0.263 ± 0.092
AAAUAGCAAUAUUACGUGAA | -3.08 ± 0.12 | -0.845 ± 0.097
AAAUAGCAAUAUUACGUGGA | -3.16 ± 0.13 | -2.11 ± 0.099
AAAUAGCAAUAUUACGUUGC | -2.63 ± 0.23 | -2.98 ± 0.3
AACAAGCAAUAUUACGAAGC | -3.15 ± 0.27 | -2.83 ± 0.38
AACAAGCAAUAUUACGACCC | -0.136 ± 0.22 | 0.116 ± 0.24
AACAAGCAAUAUUACGACGG | -2.3 ± 0.14 | -1.93 ± 0.12
AACAAGCAAUAUUACGAGGC | -3.07 ± 0.15 | -3.27 ± 0.28
AACAAGCAAUAUUACGAUAA | -1.62 ± 0.084 | -1.15 ± 0.11
AACAAGCAAUAUUACGAUGC | -2.67 ± 0.14 | -0.922 ± 0.11
AACAAGCAAUAUUACGCACA | 0.157 ± 0.071 | -0.163 ± 0.094
AACAAGCAAUAUUACGCACC | -0.717 ± 0.097 | -0.435 ± 0.14
AACAAGCAAUAUUACGCCCU | 0.18 ± 0.062 | 0.0436 ± 0.08
AACAAGCAAUAUUACGCCUA | -0.12 ± 0.059 | 0.231 ± 0.065
AACAAGCAAUAUUACGCGAU | -3.61 ± 0.17 | -1.57 ± 0.12
AACAAGCAAUAUUACGCGGG | -3.55 ± 0.14 | -2.46 ± 0.15
AACAAGCAAUAUUACGGAGG | -3.19 ± 0.19 | -0.738 ± 0.15
AACAAGCAAUAUUACGGCUG | -0.419 ± 0.059 | -0.225 ± 0.086
AACAAGCAAUAUUACGGGAG | -2.51 ± 0.093 | -1.96 ± 0.1

Sequence | self-splicing fitness (ln) (30 °C) | self-splicing fitness (ln) (37 °C)
AACAAGCAAUAUUACGGGCA | -0.586 ± 0.058 | -0.0288 ± 0.066
AACAAGCAAUAUUACGGGCC | -2.99 ± 0.25 | 0.104 ± 0.19
AACAAGCAAUAUUACGGUUU | -2.73 ± 0.1 | -1.08 ± 0.086
AACAAGCAAUAUUACGUCGA | -1.27 ± 0.087 | -0.532 ± 0.092
AACAAGCAAUAUUACGUGGU | -3.38 ± 0.12 | -1.57 ± 0.1
AACAAGCAAUAUUACGUUGA | -3.31 ± 0.13 | -1.95 ± 0.1
AACAAGCAAUAUUACGUUGU | -2.17 ± 0.074 | -2.39 ± 0.13
AACAAGCAAUAUUACGUUUA | -2.45 ± 0.09 | -1.07 ± 0.074
AACAAGCAAUAUUACGUUUU | -3.22 ± 0.08 | -1.03 ± 0.067
AACCAGCAAUAUUACGACAC | -1.07 ± 0.08 | -0.426 ± 0.1
AACCAGCAAUAUUACGACCC | -0.941 ± 0.1 | 0.421 ± 0.13
AACCAGCAAUAUUACGACCU | -0.404 ± 0.093 | -0.0868 ± 0.1
AACCAGCAAUAUUACGAGGU | -3.14 ± 0.16 | -2.53 ± 0.16
AACCAGCAAUAUUACGAUAC | -2.38 ± 0.084 | -1.39 ± 0.11
AACCAGCAAUAUUACGAUCC | -0.433 ± 0.078 | -0.358 ± 0.12
AACCAGCAAUAUUACGCAAA | -0.829 ± 0.1 | -0.805 ± 0.11
AACCAGCAAUAUUACGCACG | -0.891 ± 0.055 | -0.215 ± 0.078
AACCAGCAAUAUUACGCGGU | -4.38 ± 0.19 | -2.43 ± 0.15
AACCAGCAAUAUUACGGAAG | -1.22 ± 0.066 | 0.117 ± 0.089
AACCAGCAAUAUUACGGAGU | -1.66 ± 0.048 | -0.881 ± 0.064
AACCAGCAAUAUUACGGCAU | 0.127 ± 0.053 | 0.376 ± 0.067
AACCAGCAAUAUUACGGCCU | 0.12 ± 0.075 | -0.853 ± 0.082
AACCAGCAAUAUUACGGUAU | -2 ± 0.071 | -0.457 ± 0.08
